PMC4974627 (Biochemistry, 2016)

Molecular target: the molecule itself
Test: native MS

B1: Arabidopsis thaliana S-nitrosoglutathione reductase (AtGSNOR), CysSH-treated control (unmodified) (enzyme)
chain: ATQGQVITCKAAVAYEPNKPLVIEDVQVAPPQAGEVRIKILYTALCHTDAYTWSGKDPEGLFPCILGHEAAGIVESVGEGVTEVQAGDHVIPCYQAECRECKFCKSGKTNLCGKVRSATGVGIMMNDRKSRFSVNGKPIYHFMGTSTFSQYTVVHDVSVAKIDPTAPLDKVCLLGCGVPTGLGAVWNTAKVEPGSNVAIFGLGTVGLAVAEGAKTAGASRIIGIDIDSKKYETAKKFGVNEFVNPKDHDKPIQEVIVDLTDGGVDYSFECIGNVSVMRAALECCHKGWGTSVIVGVAASGQEISTRPFQLVTGRVWKGTAFGGFKSRTQVPWLVEKYMNKEIKVDEYITHNLTLGEINKAFDLLHEGTCLRCVLDTSK
For B1, which “stoichiometry N” value is on record?
Its value is 2.
